Laboratory results published in publication PMC6327041, “Histone H3 binding to the PHD1 domain of histone demethylase KDM5A enables active site remodeling” (Nature Communications, 2019).

B1: unmodified H3 10mer effector peptide (H3 Ala1-Ser10) [not stated] / GST-PHD1 (S287-K347) of KDM5A [human] (parent)
chain 1: ARTKQTARKS
chain 2: SVNFVDLYVCMFCGRGNNEDKLLLCDGCDDSYHTFCLIPPLPDVPKGDWRCPKCVAEECSK

Variants of: B1
Experiment: competition-based fluorescence polarization assay
Conditions: with GST-PHD1 (S287-K347) of KDM5A [human]

Row | Variant | Kd
1 | chain 1 AATKQTARKS [chain 1 R2A] | 205 µM
